The record followed here is paper PMC11472156, “Synergistic regulation of fusion pore opening and dilation by SNARE and synaptotagmin-1” (Journal of Molecular Cell Biology, 2024).

The data set concerns the molecule itself. The data set is described as follows: single-molecule fluorescence photobleaching step counting; 40 pM Cy5-labeled C2AB incubated 30 min at room temperature on a DiI-labeled supported lipid bilayer (15% DOPS, with or without 1% PIP2), no Ca2+; unbound protein removed; photobleaching steps per fluorescent spot fitted to a Poisson distribution and corrected for unlabeled fragments; printed numbers are with 1% PIP2.

Residue numbers refer to the chain shown, from its start. In names and notes the source's numbering stands.

B1: Syt1 C2B domain-containing C2AB fragment, C2AB (A418C), Cy5-labeled (domain or fragment)
chain: KLGKLQYSLDYDFQNNQLLVGIIQAAELPALDMGGTSDPYVKVFLLPDKKKKFETKVHRKTLNPVFNEQFTFKVPYSELGGKTLVMAVYDFDRFSKHDIIGEFKVPMNTVDFGHVTEEWRDLQSAEKEEQEKLGDICFSLRYVPTAGKLTVVILEAKNLKKMDVGGLSDPYVKIHLMQNGKRLKKKKTTIKKNTLNPYYNESFSFEVPFEQIQKVQVVVTVLDYDKIGKNDAIGKVFVGYNSTGAELRHWSDMLANPRRPIAQWHTLQVEEEVDAMLCVKK
modifications: Sulfo-Cy5 maleimide label (labeling efficiency 34.5%-42%)
By stoichiometry N is commonly meant the number of molecules, sites or subunits per partner or assembly. With B1, the “stoichiometry N” value was 6.85 molecules.

B2: C2AB_F349A (A418C), Cy5-labeled (domain or fragment)
chain: B1 chain with F209A
modifications: Sulfo-Cy5 maleimide label (labeling efficiency 34.5%-42%)
As for B2, the “stoichiometry N” value worked out at 3.03 molecules.
